Measurements from US20250026836A1.

What was measured:
[1] = biological target: HLA-G1 isoform expressed on Expi293F cells (human) (UniProt P17693); test: flow cytometry on Expi293F cells transfected with HLA-G1, negative control staining
[2] = biological target: HLA-G2 isoform expressed on Expi293F cells (human) (UniProt P17693); test: flow cytometry on Expi293F cells transfected with HLA-G2, negative control staining
[3] = biological target: HLA-G4 isoform expressed on Expi293F cells (human) (UniProt P17693); test: flow cytometry on Expi293F cells transfected with HLA-G4, negative control staining
[4] = biological target: HLA-G2 isoform expressed on Expi293F cells (human) (UniProt P17693); test: flow cytometry on Expi293F cells transfected with HLA-G2, negative control staining; same profile as the HLA-G2 row of FIG. 5A, drawn larger
[5] = biological target: HLA-G1 isoform expressed on Expi293F cells (human) (UniProt P17693); test: flow cytometry on Expi293F cells transfected with HLA-G1, antibody 10 µg/ml
[6] = biological target: HLA-G2 isoform expressed on Expi293F cells (human) (UniProt P17693); test: flow cytometry on Expi293F cells transfected with HLA-G2, antibody 10 µg/ml
[7] = biological target: HLA-G3 isoform expressed on Expi293F cells (human) (UniProt P17693); test: flow cytometry on Expi293F cells transfected with HLA-G3, antibody 10 µg/ml
[8] = biological target: HLA-G4 isoform expressed on Expi293F cells (human) (UniProt P17693); test: flow cytometry on Expi293F cells transfected with HLA-G4, antibody 10 µg/ml

| % (positive cells) [1] [%] | % (positive cells) [2] [%] | % (positive cells) [3] [%] | % (positive cells) [4] [%] | % of the cells stained [5] [%] | % of the cells stained [6] [%] | % of the cells stained [7] [%] | % of the cells stained [8] [%] | Substance |
| --- | --- | --- | --- | --- | --- | --- | --- | --- |
| 1 | 1 | 2 | 1 |  |  |  |  | 2nd Ab (neg CTRL) (antibody) |
|  |  |  |  | 81 | 34 | 67 | 16 | commercial Mouse anti-HLA-G antibody 4H84 (Abcam, Mouse IgG1) |
